The record followed here is the MegaScale stability set (Tsuboyama et al. 2023).

To fix the notation:
B1: r11_951_TrROS_Hall (parent)
chain: KKKYVIKVYFEDTGKEVEIEAESKEEALEAAKRLAEELGLKIKKVEIYP

The series covers variants of B1. Nature of the series: folding stability dG (cDNA display proteolysis); higher = more stable. The conditions noted are these: PBS, room temperature.
KKKYVIKVYFEDTGKEVEIEAESKEEALEAAKRLAEELGLKIKKVAIYP: the “folding stability dG” value amounted to 4.32 kcal/mol. For KKKYVIKVYFEDTGKEVEIEAESKEEALEAAKRLAEELGLKIKKVRIYP, the “folding stability dG” value amounted to 4.16 kcal/mol.

Turning to KKKYVIKVYFEDTGKEVIIEAESKEEALEAAKRLAEELGLKIKKVEIYP, the “folding stability dG” value was determined as 4.61 kcal/mol. The value for KKKYVIKVYFEDTGKEVAIEAESKEEALEAAKRLAEELGLKIKKVEIYP was 4.14 kcal/mol; that for KKKYVIKVYFEDTGKEVTIEAESKEEALEAAKRLAEELGLKIKKVEIYP was 4.3 kcal/mol. Consider KKKYVIKVYFEDTGKEVKIEAESKEEALEAAKRLAEELGLKIKKVEIYP, for which the “folding stability dG” value is 4.07 kcal/mol. Turning to KKKYVIKVYFEDTGKEVQIEAESKEEALEAAKRLAEELGLKIKKVEIYP, the “folding stability dG” value was determined as 4.5 kcal/mol. In the case of KKKYVIKVYFEDTGKEVEIEAESKEEALEAAKILAEELGLKIKKVEIYP, the “folding stability dG” value turned out to be 4.28 kcal/mol. As to KKKYVIKVYFEDTGKEVEIEAESKEEALEAAKQLAEELGLKIKKVEIYP, the “folding stability dG” value turned out to be 4.02 kcal/mol.

As to KKKYVIKVYFEDTGKEVEIEAESKEEALEAAKLLAEELGLKIKKVEIYP, the “folding stability dG” value is 4.23 kcal/mol. For KKKYVIKVYFEDTGKEVEIEAESKEEALEAAKRLIEELGLKIKKVEIYP, the “folding stability dG” value amounted to 3.99 kcal/mol. The value for KKKYVIKVYFEDWGKEVEIEAESKEEALEAAKRLAEELGLKIKKVEIYP was 4.28 kcal/mol; that for KKKYVIKVYFEDNGKEVEIEAESKEEALEAAKRLAEELGLKIKKVEIYP was 4.58 kcal/mol. As for KKKYVIKVYFEDLGKEVEIEAESKEEALEAAKRLAEELGLKIKKVEIYP, the “folding stability dG” value turned out to be 4.29 kcal/mol. The value for KKKYVIKVYFEDMGKEVEIEAESKEEALEAAKRLAEELGLKIKKVEIYP was 4.35 kcal/mol. The value for KKKYVIKVYFEDSGKEVEIEAESKEEALEAAKRLAEELGLKIKKVEIYP was 4.55 kcal/mol; that for KKKYVIKVQFEDTGKEVEIEAESKEEALEAAKRLAEELGLKIKKVEIYP was 4.09 kcal/mol. The value for KKKYVIKVLFEDTGKEVEIEAESKEEALEAAKRLAEELGLKIKKVEIYP was 4.26 kcal/mol; that for KKKYVIKVMFEDTGKEVEIEAESKEEALEAAKRLAEELGLKIKKVEIYP was 4.4 kcal/mol; that for KKKYVIKVNFEDTGKEVEIEAESKEEALEAAKRLAEELGLKIKKVEIYP was 3.87 kcal/mol. For the variant KKKYVIKVPFEDTGKEVEIEAESKEEALEAAKRLAEELGLKIKKVEIYP, the “folding stability dG” value stood at 1.42 kcal/mol. Under KKKYVIKVKFEDTGKEVEIEAESKEEALEAAKRLAEELGLKIKKVEIYP stands 3.98 kcal/mol. Under KKKYVIKVYFEDTGKEVEIEAEQKEEALEAAKRLAEELGLKIKKVEIYP stands 3.89 kcal/mol; under KKKYVIKVYFEDTGKEVEIEAETKEEALEAAKRLAEELGLKIKKVEIYP, 4.35 kcal/mol.

Consider KKKLVIKVYFEDTGKEVEIEAESKEEALEAAKRLAEELGLKIKKVEIYP, for which the “folding stability dG” value amounted to 3.93 kcal/mol. The value for KKKYVIKVYFEDTGKEVEIEAESKEEALEAAKRLAEELGLKICKVEIYP was 4.13 kcal/mol; that for KKKYVIKVYFEDTGKEVEIMAESKEEALEAAKRLAEELGLKIKKVEIYP was 4.42 kcal/mol.

Consider KKKYVIKVYFEDTGKEVEITAESKEEALEAAKRLAEELGLKIKKVEIYP, for which the “folding stability dG” value was determined as 4.4 kcal/mol.

KKKYVIKVYFEDTGKEVEIEAESKEEALEAAKRLAEELGLKIKKVECYP: the “folding stability dG” value came out at 4.13 kcal/mol. Under KKKYVIKVYFEDTGEEVEIEAESKEEALEAAKRLAEELGLKIKKVEIYP stands 4.35 kcal/mol; under KKKYVIKVYFEDTGMEVEIEAESKEEALEAAKRLAEELGLKIKKVEIYP, 4.16 kcal/mol. The value for KKKYVIKVYFEDTGLEVEIEAESKEEALEAAKRLAEELGLKIKKVEIYP was 4.28 kcal/mol.

Regarding KKKYVIKVYFEDTGKEVEIEAESKEEALEAAKRLAEEFGLKIKKVEIYP, the “folding stability dG” value was determined as 4.42 kcal/mol. Under KKKYVIKVYFEDTGKEVEIEAESKEEALEAAKRLAEEEGLKIKKVEIYP stands 3.89 kcal/mol; under KKKYVIKVYFEDTGKEVEIEAESKEEALEAAKRSAEELGLKIKKVEIYP, 4.01 kcal/mol; under KKKYVIKVYFEDTGKEVEIEAESKEEALEAAKRTAEELGLKIKKVEIYP, 4.25 kcal/mol. With KKKYVIKVYFEDTGKEVEIEAESKEEALEAAKRHAEELGLKIKKVEIYP, the “folding stability dG” value amounted to 4.22 kcal/mol. Under KKKYVIKVYFEDTGKEVEIEADSKEEALEAAKRLAEELGLKIKKVEIYP stands 4.26 kcal/mol. On to KKKYVIKVYFEDTGKEVEIEAPSKEEALEAAKRLAEELGLKIKKVEIYP, for which the “folding stability dG” value was 4.4 kcal/mol. Under KKKYVIKVYFEDTGKEVEIEAGSKEEALEAAKRLAEELGLKIKKVEIYP stands 4.32 kcal/mol.

Consider KKKYVIKVYFEDTGKEVEIEANSKEEALEAAKRLAEELGLKIKKVEIYP, for which the “folding stability dG” value is 4.38 kcal/mol. Under KKKYVIKVYFEDTGKEVEIEASSKEEALEAAKRLAEELGLKIKKVEIYP stands 4.25 kcal/mol; under KKKYVIKKYFEDTGKEVEIEAESKEEALEAAKRLAEELGLKIKKVEIYP, 0.16 kcal/mol; under KKKYVIKTYFEDTGKEVEIEAESKEEALEAAKRLAEELGLKIKKVEIYP, 2.91 kcal/mol. The value for KKKYVIKVYFEDTGKEVEIEAESKEEALEAAKRLAEELGLKIKHVEIYP was 4.47 kcal/mol; that for KKKYVIKVYFEDTGKEVEIEAESKEEMLEAAKRLAEELGLKIKKVEIYP was 3.71 kcal/mol.

Regarding KKKYVIKVYFEDTGKEVEIEAESKEEQLEAAKRLAEELGLKIKKVEIYP, the “folding stability dG” value turned out to be 2.23 kcal/mol. KKKYVIKVYFEDTGKEVEIEAESKEETLEAAKRLAEELGLKIKKVEIYP: the “folding stability dG” value came to 3.58 kcal/mol. As to KKKYVIKVYFEDTGKEVEIEAESKEENLEAAKRLAEELGLKIKKVEIYP, the “folding stability dG” value was determined as 2.01 kcal/mol.

With KYKYVIKVYFEDTGKEVEIEAESKEEALEAAKRLAEELGLKIKKVEIYP, the “folding stability dG” value is 4.42 kcal/mol.

As for KKKYVIKVYFEDTGKEVEIEAESKEEALEAAKRLAEELELKIKKVEIYP, the “folding stability dG” value is 4.18 kcal/mol. The value for KKKYVIKVYFEDTGKEVEIEAESKEEALEAAKRLAEELCLKIKKVEIYP was 4.25 kcal/mol; that for KKKYVIKVYFEDTGKEVEIEAESKEWALEAAKRLAEELGLKIKKVEIYP was 4.92 kcal/mol.
